Like-named read-outs stand apart in the source and are kept apart here.
Legend:
[1] = molecular target: T1, IgV domain of human B7-H4-Fc (human); experiment: ELISA, coated hB7-H4 IgV domain
T1 construct: also called hB7-H4 IgV domain

[2] = molecular target: T2, human B7-H4 expressed on cells (human, UniProt Q7Z7D3 25-282); experiment: flow cytometry on SK-BR-3 cells
T2 construct: Transfected CHO cells or tumor cell lines that carry hB7-H4; also called cellular hB7-H4
T2 sequence: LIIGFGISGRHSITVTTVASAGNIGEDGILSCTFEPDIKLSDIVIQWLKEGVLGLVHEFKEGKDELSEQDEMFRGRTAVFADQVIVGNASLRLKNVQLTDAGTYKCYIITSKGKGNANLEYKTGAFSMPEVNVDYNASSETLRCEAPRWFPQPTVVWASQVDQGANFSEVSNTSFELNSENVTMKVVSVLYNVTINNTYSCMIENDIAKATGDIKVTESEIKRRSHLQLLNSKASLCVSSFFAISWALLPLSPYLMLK
Method: (§1) Cells were harvested, washed once, and then re-suspended to the concentration of 1×10⁶ cells/ml in ice cold FACS Buffer. 25 μl of cell suspension was added to each well of a 96-well round-bottom microliter plate. Serially diluted antibodies or fusion proteins were added to each well and incubated for 1 hour at 4° C. Cells were washed three times by centrifugation at 1500 rpm for 5 minutes, and then stained with secondary antibody (1:200 dilution) for 30 min at 4° C. in the dark. Cells were washed once, re-suspended in 100 μl PBS buffer and then analyzed using Guava Flow Cytometry EasyCyte system.

[3] = molecular target: T2, human B7-H4 expressed on cells; experiment: flow cytometry, SK-BR-3 cells
Summary of the method: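 Antibody or fusion protein dilution series applied to 1×10⁶ cells/ml in ice-cold FACS buffer, 1 h at 4 °C; cells washed thrice, labelled 30 min at 4 °C in darkness with 1:200 secondary antibody, washed, resuspended in PBS and analysed by flow cytometry.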

[4] = molecular target: T3, mouse B7-H4 expressed on cells (mouse, UniProt Q7TSP5 25-257); experiment: flow cytometry on mB7H4-CT26 cells
T3 construct: also called cellular mB7-H4; mB7-H4/CT26
T3 sequence: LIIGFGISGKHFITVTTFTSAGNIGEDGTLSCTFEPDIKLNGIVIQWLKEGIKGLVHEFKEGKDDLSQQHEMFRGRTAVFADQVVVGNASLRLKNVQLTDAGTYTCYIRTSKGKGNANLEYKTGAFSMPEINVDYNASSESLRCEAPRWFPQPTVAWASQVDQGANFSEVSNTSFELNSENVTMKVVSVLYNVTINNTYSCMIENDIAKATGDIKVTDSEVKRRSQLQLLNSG
Method: as §1

[5] = molecular target: T4, mB7-H4 (soluble mouse B7-H4, construct not named) (mouse, UniProt Q7TSP5 25-257, limits assumed); experiment: SPR (Biacore)
T4 sequence: T3 sequence
Summary of the method: (§2)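 Kinetic constants came from a 1:1 Langmuir fit of binding at 25 °C in HBS-EP, pH 7.4. Analyte (100 nM to 0.1 nM) flowed for 180 s, then dissociated for 1000 or 1200 s, over amine-coupled human B7-H4-Fc, human B7-H4-his or mouse B7-H4-Fc surfaces at 50-100 RU.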

[6] = molecular target: T5, hB7-H4 (soluble human B7-H4, construct not named) (human, UniProt Q7Z7D3 25-259, limits assumed); experiment: SPR (Biacore)
T5 construct: also called soluble hB7-H4
T5 sequence: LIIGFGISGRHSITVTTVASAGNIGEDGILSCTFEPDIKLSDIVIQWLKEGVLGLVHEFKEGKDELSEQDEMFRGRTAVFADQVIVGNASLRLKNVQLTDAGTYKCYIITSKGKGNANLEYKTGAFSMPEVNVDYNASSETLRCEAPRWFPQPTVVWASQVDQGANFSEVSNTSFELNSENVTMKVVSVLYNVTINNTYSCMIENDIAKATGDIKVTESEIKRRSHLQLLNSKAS
Summary of the method: as §2

[7] = molecular target: T1, IgV domain of human B7-H4-Fc; experiment: ELISA, coated hB7-H4 IgV domain; remark: listed apart in the source
Summary of the method: (§3)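 EC50 values come from fitted OD450-versus-antibody-concentration curves. Antibody dilution series bound for 1-1.5 h at RT to plates coated overnight at 4° C with about 1-2 μg/ml human or mouse B7-H4-Fc or His-tagged protein, milk-blocked. Detection used HRP-conjugated anti-hFab with TMB substrate and an acid stop.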

mouse B7-H4-his = molecular target: T6, mouse B7-H4-his (mouse, UniProt Q7TSP5 25-257); experiment: ELISA on coated mB7-H4-his
T6 construct: also called mB7-H4-his; mB7-H4-His; not shown: his tag
T6 sequence: T3 sequence
Method: (§4) About 1-2 μg/ml of human or mouse B7-H4-Fc (or his-tagged) was immobilized on ELISA plates (Immuno 2HB, Thermo scientific, cat #3455) at 4° C. overnight. After blocking the plates with 3% PBS+milk, serial diluted antibodies were added to the blocked plates and incubated at RT for 1-1.5 h. After washing the plates with PBS-T (0.05%), horse radish peroxidase (HRP)-conjugated antibody targeting the hFab was added to the plate. Signals were developed by adding 3,3′,5,5′-Tetramethylbenzidine (TMB (followed 1N of H₂SO₄ to stop the reaction. The OD at 450 nm was read by ELISA plate reader (Infinite M1000 from TECAN). GraphPad from Prism was used to plot OD450 vs. antibody concentration curve and to calculate the EC50 values.

human B7-H4-Fc = molecular target: T7, human B7-H4-Fc (human); experiment: ELISA, coated hB7-H4-Fc
T7 construct: also called hB7-H4-Fc; hB7-H4 Fc
T7 sequence (chain, as listed by the source): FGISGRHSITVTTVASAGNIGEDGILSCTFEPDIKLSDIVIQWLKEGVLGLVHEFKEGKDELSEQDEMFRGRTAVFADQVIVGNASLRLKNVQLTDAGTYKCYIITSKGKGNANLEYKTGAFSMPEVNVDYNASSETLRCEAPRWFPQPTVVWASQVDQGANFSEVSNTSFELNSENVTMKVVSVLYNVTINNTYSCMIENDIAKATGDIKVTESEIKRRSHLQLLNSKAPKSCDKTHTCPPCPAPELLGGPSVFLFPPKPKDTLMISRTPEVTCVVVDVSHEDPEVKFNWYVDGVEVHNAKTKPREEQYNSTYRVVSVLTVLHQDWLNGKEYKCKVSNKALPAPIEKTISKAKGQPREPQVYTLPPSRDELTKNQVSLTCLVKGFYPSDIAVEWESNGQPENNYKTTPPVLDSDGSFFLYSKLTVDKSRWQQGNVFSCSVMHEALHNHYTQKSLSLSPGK
Method: as §4

mouse B7-H4-Fc [8] = molecular target: T8, mouse B7-H4-Fc (mouse; human); experiment: ELISA, coated mB7-H4-Fc
T8 construct: also called mB7-H4-Fc; mB7-H4-hFc
T8 sequence (chain, as listed by the source): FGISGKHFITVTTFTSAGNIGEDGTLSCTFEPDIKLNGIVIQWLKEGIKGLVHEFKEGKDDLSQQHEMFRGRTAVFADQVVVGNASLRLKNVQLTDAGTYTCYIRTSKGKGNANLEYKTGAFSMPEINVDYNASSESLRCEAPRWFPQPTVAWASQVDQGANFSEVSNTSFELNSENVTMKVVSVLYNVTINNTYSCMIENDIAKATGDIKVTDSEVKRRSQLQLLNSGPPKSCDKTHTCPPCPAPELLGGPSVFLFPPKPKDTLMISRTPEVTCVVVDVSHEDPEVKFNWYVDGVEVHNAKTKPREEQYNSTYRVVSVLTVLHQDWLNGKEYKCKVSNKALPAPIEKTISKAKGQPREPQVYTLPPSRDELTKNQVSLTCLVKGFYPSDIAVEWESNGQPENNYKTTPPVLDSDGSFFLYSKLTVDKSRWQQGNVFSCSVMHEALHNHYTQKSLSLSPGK
Method: ELISA experiments were performed to determine binding to hB7-H4-Fc (FIG. 5A), hB7-H4-his (FIG. 5B), mB7-H4-Fc domain (FIG. 5C), hB7-H4 IgV domain (FIG. 5D), and hB7-H4 IgC domain (FIG. 5E). Flow cytrometry experiments were performed to determine binding to CHO cells expressing hB7-H4 (FIG. 5F) or mB7-H4 (FIG. 5G). […] A cross-reactive IgV binding antibody and an IgC binding antibody were used as controls.
as §4

mouse B7-H4-Fc [9] = molecular target: T8, mouse B7-H4-Fc; experiment: ELISA, coated mB7-H4-Fc; remark: listed apart in the source
Summary of the method: as §3

T1 sequence (chain, as listed by the source): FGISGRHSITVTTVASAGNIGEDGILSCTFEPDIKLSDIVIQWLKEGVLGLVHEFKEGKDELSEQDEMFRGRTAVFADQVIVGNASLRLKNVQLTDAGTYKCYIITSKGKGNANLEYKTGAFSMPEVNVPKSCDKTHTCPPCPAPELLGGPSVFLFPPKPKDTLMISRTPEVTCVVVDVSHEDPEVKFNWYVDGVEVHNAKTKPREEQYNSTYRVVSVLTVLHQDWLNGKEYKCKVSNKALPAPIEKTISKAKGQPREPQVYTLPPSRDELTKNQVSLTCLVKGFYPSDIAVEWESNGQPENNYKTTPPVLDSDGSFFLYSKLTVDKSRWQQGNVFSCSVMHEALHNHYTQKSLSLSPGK

B1: 39A11/57G8 (antibody, human IgG1, V domains shown)
VH: EVQLLESGGGLVQPGGSLRLSCAASGFTFSSYGMHWVRQAPGKGLEWVASISSSSGYIYYADSVKGRFTISRDNSKNTLYLQMNSLRAEDTAVYYCARASSGMDVWGQGTTVTVSS
VL: DIQMTQSPSSLSASVGDRVTITCRASQSIRSYLNWYQQKPGKAPKLLIYYASSLQSGVPSRFSGSGSGTDFTLTISSLQPEDFATYYCQQYYSTPLTFGQGTKVEIK
notes: 39A11 VH with 57G8 VL
B1 was tested, and the “EC50 (read off the curve)” value [1] was roughly 0.1 nM, the “EC50 (read off the curve)” value [2] was roughly 2 nM and the EC50 [3] was 1.9 nM. For the same binder, the “EC50 (read off the curve)” value [4] was roughly 2 nM, the Kd [5] was 0.0998 nM and the Kd [6] was 0.303 nM.

B2: Control antibody 1 (antibody 20502 described in US20190085080A1) (antibody, V domains shown)
VH: QLQLQESGPGLVKPSETLSLTCTVSGGSIKSGSYYWGWIRQPPGKGLEWIGNIYYSGSTYYNPSLRSRVTISVDTSKNQFSLKLSSVTAADTAVYYCAREGSYPNQFDPWGQGTLVTVSS
VL: EIVMTQSPATLSVSPGERATLSCRASQSVSSNLAWYQQKPGQAPRLLIYGASTRATGIPARFSGSGSGTEFTLTISSLQSEDFAVYYCQQYHSFPFTFGGGTKVEIK
notes: also called (+) control Ab1; (+) Ab1
In the case of B2, the “EC50 (read off the curve)” value [7] is reported as roughly 0.2 nM, the “EC50 (read off the curve)” value (mouse B7-H4-his) is reported as roughly 0.2 nM and the “EC50 (read off the curve)” value (human B7-H4-Fc) is reported as roughly 0.1 nM. For the same binder, the “EC50 (read off the curve)” value (mouse B7-H4-Fc [8]) was roughly 0.1 nM and the “EC50 (read off the curve)” value (mouse B7-H4-Fc [9]) was roughly 0.1 nM.
